Measured values as given in patent publication US20240247080A1, “GLP1/GIP/NPY2 RECEPTOR TRIPLE AGONISTS” (Boehringer Ingelheim International GmbH, priority 2022, published 2024).
Where a chain is given by its changes, count along the chain named. Starred links: 1 amine or outer side, 2 acyl side, 3 side chain; linkers in the order of their positions; H or OH if unused. Non-standard residues stand in square brackets, D forms with d. Groups on a side chain read outwards from the residue. No end group written: not given here. *: point of attachment. C20 diacid = O=C(O)CCCCCCCCCCCCCCCCCCC(=O)*; γGlu = O=C(O)[C@H](CCC(=O)[*:2])N[*:1]; εLys = N[C@@H](CCCCN[*:1])C(=O)[*:2]; AEEA = NCCOCCOCC(=O)O; Aib = CC(C)(N)C(=O)O

T1: human GIP receptor (human, UniProt P48546 22-466)
T1 sequence (looked up): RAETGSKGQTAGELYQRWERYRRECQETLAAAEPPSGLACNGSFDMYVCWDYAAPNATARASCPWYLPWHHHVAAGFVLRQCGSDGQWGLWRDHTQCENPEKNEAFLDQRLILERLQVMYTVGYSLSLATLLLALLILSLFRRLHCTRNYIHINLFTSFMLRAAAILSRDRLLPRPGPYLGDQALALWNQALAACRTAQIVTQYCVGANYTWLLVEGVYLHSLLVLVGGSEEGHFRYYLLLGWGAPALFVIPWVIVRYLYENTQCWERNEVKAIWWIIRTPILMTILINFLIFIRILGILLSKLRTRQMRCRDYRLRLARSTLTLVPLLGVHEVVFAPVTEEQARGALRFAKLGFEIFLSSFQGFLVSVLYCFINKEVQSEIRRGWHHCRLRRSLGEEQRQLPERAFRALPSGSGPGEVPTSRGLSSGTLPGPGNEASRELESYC

T2: human neuropeptide Y2 receptor (human, UniProt P49146 1-381)
T2 sequence (looked up): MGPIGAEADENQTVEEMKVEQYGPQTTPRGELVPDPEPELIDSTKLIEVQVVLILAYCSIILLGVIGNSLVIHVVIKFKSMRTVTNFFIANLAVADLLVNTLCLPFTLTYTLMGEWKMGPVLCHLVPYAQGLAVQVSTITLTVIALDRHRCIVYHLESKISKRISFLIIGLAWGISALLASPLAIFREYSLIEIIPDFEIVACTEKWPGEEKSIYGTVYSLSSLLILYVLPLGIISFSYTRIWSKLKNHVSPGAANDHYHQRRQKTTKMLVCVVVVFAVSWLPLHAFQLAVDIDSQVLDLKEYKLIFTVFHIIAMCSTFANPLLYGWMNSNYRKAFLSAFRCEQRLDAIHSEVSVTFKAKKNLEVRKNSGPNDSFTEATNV

B1: Compound 90 (peptide)
peptide: YXEGTFTSDYSIXLEDQAQXAFVEWLIKGGPSSGASLRHYYNWLTRQRY
modifications: Aib at 2, 13, 20; K28 side chain: C20DA-gGlu-gGlu-gGlu-gGlu-gGlu-gGlu-eLys; C-terminal NH2
B2: Compound 95 (peptide)
peptide: B1 peptide with D16K, G34P
modifications: Aib at 2, 13, 20; K28 side chain: C20DA-gGlu-gGlu-gGlu-gGlu-gGlu-gGlu-eLys; C-terminal NH2
B3: Compound 96 (peptide)
peptide: B1 peptide with D16K, A35V
modifications: Aib at 2, 13, 20; K28 side chain: C20DA-gGlu-gGlu-gGlu-gGlu-gGlu-gGlu-eLys; C-terminal NH2
B4: Compound 98 (peptide)
peptide: B1 peptide with D16K, G34A
modifications: Aib at 2, 13, 20; K28 side chain: C20DA-gGlu-gGlu-gGlu-gGlu-gGlu-gGlu-eLys; C-terminal NH2
B5: Compound 106 (peptide)
peptide: B1 peptide with D16K, Y41I
modifications: Aib at 2, 13, 20; K28 side chain: C20DA-gGlu-gGlu-gGlu-gGlu-gGlu-gGlu-eLys; C-terminal NH2
B6: Compound 111 (peptide)
peptide: B1 peptide with D16K, E24Q, S33E, G34P
modifications: Aib at 2, 13, 20; K28 side chain: C20DA-gGlu-gGlu-gGlu-gGlu-gGlu-OEG-OEG; C-terminal NH2
B7: Compound 99 (peptide)
peptide: B1 peptide with D16G
modifications: Aib at 2, 13, 20; K28 side chain: C20DA-gGlu-gGlu-gGlu-gGlu-gGlu-gGlu-eLys; C-terminal NH2
B8: Compound 112 (peptide)
peptide: B1 peptide with D16K, E24Q
modifications: Aib at 2, 13, 20; K28 side chain: C20DA-gGlu-gGlu-gGlu-gGlu-gGlu-OEG-OEG; C-terminal NH2
B9: Compound 94 (peptide)
peptide: B1 peptide with D16K, A35I
modifications: Aib at 2, 13, 20; K28 side chain: C20DA-gGlu-gGlu-gGlu-gGlu-gGlu-gGlu-eLys; C-terminal NH2
B10: Compound 107 (peptide)
peptide: B1 peptide with D16K, A35L
modifications: Aib at 2, 13, 20; K28 side chain: C20DA-gGlu-gGlu-gGlu-gGlu-gGlu-gGlu-eLys; C-terminal NH2
B11: Compound 104 (peptide)
peptide: B1 peptide with X13L, D16K
modifications: Aib at 2, 20; K28 side chain: C20DA-gGlu-Glu-gGlu-gGlu-gGlu-gGlu-eLys; C-terminal NH2
B12: Compound 91 (peptide)
peptide: B1 peptide with D16K, S36T
modifications: Aib at 2, 13, 20; K28 side chain: C20DA-gGlu-gGlu-gGlu-gGlu-gGlu-gGlu-eLys; C-terminal NH2
B13: Compound 102 (peptide)
peptide: B1 peptide with D16A
modifications: Aib at 2, 13, 20; K28 side chain: C20DA-gGlu-gGlu-gGlu-gGlu-gGlu-gGlu-eLys; C-terminal NH2
B14: Compound 93 (peptide)
peptide: B1 peptide with D16K, S33E, G34Y, A35E
modifications: Aib at 2, 13, 20; K28 side chain: C20DA-gGlu-gGlu-gGlu-gGlu-gGlu-gGlu-eLys; C-terminal NH2
B15: Compound 103 (peptide)
peptide: B1 peptide with D16K, L37X
modifications: Aib at 2, 13, 20; Tle at 37; K28 side chain: C20DA-gGlu-gGlu-gGlu-gGlu-gGlu-gGlu-eLys; C-terminal NH2

Legend:
Experiment in all cases: cell-based or functional assay
human GIP receptor = target: T1, human GIP receptor
human GLP-1 receptor = human GLP-1 receptor (human, UniProt P43220 24-463)
[1] = target: T2, human neuropeptide Y2 receptor

Binder	EC50 CreLuc hGIPR 0.5% hP (human GIP receptor) [nM]	EC50 CreLuc hGIPR 100% hP (human GIP receptor) [nM]	EC50 CreLuc hGLP1R 0.5% hP (human GLP-1 receptor) [nM]	EC50 CreLuc hGLP1R 100% hP (human GLP-1 receptor) [nM]	EC50 CreLuc hNPY2R 0.5% hP [1] [nM]	EC50 CreLuc hNPY2R 100% hP [1] [nM]
Y[Aib]EGTFTSDYSI[Aib]LEKQAQ[Aib]AFVQWLIK([εLys-γGlu-γGlu-γGlu-Glu-γGlu-γGlu-γGlu-C20 diacid])GGPSSGASLRHYYNWLTRQRY-NH2 [Compound 92]	0.33	1.64	0.08	3.16	7.48	27.9
Y[Aib]EGTFTSDYSI[Aib]LEEQAQ[Aib]AFVEWLIK([εLys-γGlu-γGlu-γGlu-γGlu-C20 diacid])GGPSSGASLRHYYNWLTRQRY-NH2 [Compound 97]	0.14	0.95	0.15	3.08	14.9	70.4
Y[Aib]EGTFTSDYSI[Aib]LEEQAQ[Aib]AFVEWLIKGGPSSGASLRHYYNWLTRQRY-NH2 (not fully specified (residue 28)) [Compound 105]	0.2	0.87	0.14	1.66	10.4	69
Y[Aib]EGTFTSDYSI[Aib]LEEQAQ[Aib]AFVEWLIKGGPSSGASLRHYYNWLTRQRY-NH2 (not fully specified (residue 28)) [Compound 100]	0.1	0.87	0.12	2.21	11.2	48
Y[Aib]EGTFTSDYSI[Aib]LEKQAQ[Aib]AFVQWLIKGGPEEGASLRHYYNWLTRQRY-NH2 (not fully specified (residue 28)) [Compound 108]	0.3	2.14	0.4	6.16	14.8	57.4
Y[Aib]EGTFTSDYSI[Aib]LEKQAQ[Aib]AFVQWLIKGGPSEPASLRHYYNWLTRQRY-NH2 (not fully specified (residue 28)) [Compound 101]	0.15	1.43	0.1	2.5	12.1	26.5
B1	1.03	6.75	0.3	5.39	18.4	71.9
B2	0.13	0.75	0.13	2.76	20.6	56.9
B3	0.19	1.07	0.14	2.12	15.5	44.8
B4	0.44	3.41	0.31	8.22	15.1	64.2
B5	0.26	2.17	0.14	3.56	20.5	74.2
B6	0.55	1.96	0.12	5.32	13.4	36.8
B7	0.91	8.52	0.41	6.72	16.8	85.9
B8	0.19	0.83	0.06	1.7	8.05	27.6
B9	0.22	1.04	0.09	1.98	12.3	40.2
B10	0.27	0.99	0.13	1.88	16.7	58.5
B11	0.06	0.6	0.09	2.06	13.4	50.7
B12	0.21	1.72	0.17	4.16	16.2	53.1
B13	0.98	4.01	0.33	3.48	24.9	80.7
B14	0.14	2.35	0.22	8.97	15.3	85.7
B15	0.26	1.73	0.13	3.19	12	50.7
Y[Aib]EGTFTSDYSI[Aib]LEKQAQ[Aib]AFVEWLLKGGPSSGASLRHYYNWLTRQRY-NH2 (not fully specified (residue 28)) [Compound 109]	0.09	0.64	0.28	3.32	10.8	52.2
Y[Aib]EGTFTSDYSI[Aib]LEEQAQ[Aib]AFVEWLIK([εLys-AEEA-γGlu-γGlu-γGlu-γGlu-γGlu-C20 diacid])GGPSSGASLRHYYNWLTRQRY-NH2 [Compound 110]	0.15	1.14	0.15	1.53	17.5	42.5
